Biological target: TOPOIIIalpha (TRR complex);RMI1 (TRR complex);RMI2 (TRR complex) (Homo sapiens;Homo sapiens;Homo sapiens, UniProt Q13472;Q9H9A7;Q96E14 1-1001;1-625;1-147, ||)
Assay: fluorescence anisotropy; 5 mM MgCl2; 50 mM Tris-HCl pH 7.5, 50 mM NaCl, 1 mM DTT, 5 mM MgCl2, 50 µg/mL BSA, 25 °C; 10 nM labeled DNA in direct titrations
Conditions: protein: recombinant;recombinant;recombinant; tags: His;;; copies: 1;1;1; label: 3'-fluorescein; single strand

TOPOIIIalpha (TRR complex);RMI1 (TRR complex);RMI2 (TRR complex), sequence (Q13472 whole entry, chain 1 of 3): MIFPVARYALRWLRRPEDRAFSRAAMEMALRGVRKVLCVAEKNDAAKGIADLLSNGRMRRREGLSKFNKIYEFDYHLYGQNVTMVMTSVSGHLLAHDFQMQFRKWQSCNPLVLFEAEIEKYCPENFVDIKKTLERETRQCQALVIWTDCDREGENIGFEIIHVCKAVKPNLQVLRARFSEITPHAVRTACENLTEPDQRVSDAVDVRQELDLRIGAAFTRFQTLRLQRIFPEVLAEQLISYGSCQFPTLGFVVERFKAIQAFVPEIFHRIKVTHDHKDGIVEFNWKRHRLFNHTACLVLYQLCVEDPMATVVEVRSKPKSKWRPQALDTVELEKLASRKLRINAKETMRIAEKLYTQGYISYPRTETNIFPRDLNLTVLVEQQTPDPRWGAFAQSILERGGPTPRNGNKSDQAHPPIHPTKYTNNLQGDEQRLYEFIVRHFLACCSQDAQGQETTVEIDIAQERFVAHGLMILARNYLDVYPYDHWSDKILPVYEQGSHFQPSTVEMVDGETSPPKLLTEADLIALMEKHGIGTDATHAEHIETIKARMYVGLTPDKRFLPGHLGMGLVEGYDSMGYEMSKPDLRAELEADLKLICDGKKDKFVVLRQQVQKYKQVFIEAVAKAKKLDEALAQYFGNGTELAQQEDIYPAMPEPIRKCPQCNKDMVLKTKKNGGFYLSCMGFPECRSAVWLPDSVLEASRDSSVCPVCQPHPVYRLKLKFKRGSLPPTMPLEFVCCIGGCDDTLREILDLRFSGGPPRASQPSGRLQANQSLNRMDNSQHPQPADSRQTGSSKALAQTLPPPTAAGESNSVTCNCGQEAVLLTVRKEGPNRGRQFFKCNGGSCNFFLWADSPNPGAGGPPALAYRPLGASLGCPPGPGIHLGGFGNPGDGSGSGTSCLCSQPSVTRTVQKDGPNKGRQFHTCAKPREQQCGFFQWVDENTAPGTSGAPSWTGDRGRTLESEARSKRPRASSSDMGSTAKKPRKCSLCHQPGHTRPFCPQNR
TOPOIIIalpha (TRR complex);RMI1 (TRR complex);RMI2 (TRR complex), sequence (Q9H9A7 whole entry, chain 2 of 3): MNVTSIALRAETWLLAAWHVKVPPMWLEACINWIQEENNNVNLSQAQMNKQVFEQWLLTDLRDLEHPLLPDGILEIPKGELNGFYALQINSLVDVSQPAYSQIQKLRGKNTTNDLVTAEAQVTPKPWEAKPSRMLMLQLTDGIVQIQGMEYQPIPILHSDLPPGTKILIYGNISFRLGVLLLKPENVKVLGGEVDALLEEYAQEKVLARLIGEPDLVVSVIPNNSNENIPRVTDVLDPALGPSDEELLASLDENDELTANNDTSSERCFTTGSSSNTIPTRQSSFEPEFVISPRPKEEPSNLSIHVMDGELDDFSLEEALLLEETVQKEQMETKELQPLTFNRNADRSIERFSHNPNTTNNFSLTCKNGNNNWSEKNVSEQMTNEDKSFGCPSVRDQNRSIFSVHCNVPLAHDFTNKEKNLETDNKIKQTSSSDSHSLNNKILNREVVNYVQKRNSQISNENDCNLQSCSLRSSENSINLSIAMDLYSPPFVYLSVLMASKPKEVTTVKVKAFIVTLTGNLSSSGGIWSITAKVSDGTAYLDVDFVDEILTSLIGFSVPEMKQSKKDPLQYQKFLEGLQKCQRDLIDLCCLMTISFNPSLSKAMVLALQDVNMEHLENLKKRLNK
TOPOIIIalpha (TRR complex);RMI1 (TRR complex);RMI2 (TRR complex), sequence (Q96E14 whole entry, chain 3 of 3): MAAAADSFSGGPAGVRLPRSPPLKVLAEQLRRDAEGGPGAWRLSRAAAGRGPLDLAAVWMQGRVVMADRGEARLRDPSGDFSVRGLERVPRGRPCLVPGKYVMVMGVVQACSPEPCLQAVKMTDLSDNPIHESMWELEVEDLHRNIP

B1: ss54-FLU (ssDNA)
DNA: TCCTTTTGATAAGAGGTCATTTTTGCGGATGGCTTAGAGCTTAATTGCGCAACG
  Kd: 64 ± 13 nM

Reference: PMC8813930, “The toposiomerase IIIalpha-RMI1-RMI2 complex orients human Bloom’s syndrome helicase for efficient disruption of D-loops”
